Data as given in the DeepSol protein solubility set.

Experiment: soluble on expression in E. coli; label from the status in PepcDB or PDB records
For “MSANNTAKNMHPETRAVGSETSSLQASQDEFENLVRNVDVKSRIMDQYADWKGVRYRLGGSTKKGIDCSGFVQRTFREQFGLELPRSTYEQQEMGKSVSRSNLRTGDLVLFRAGSTGRHVGIYIGNNQFVHASTSSGVIISSMNEPYWKKRYNEARRVLSRSLEHHHHHH”, the “soluble on expression in E. coli” value was “soluble”. For “MSAPPTAPADPSTGSDRPKRSVPPPRHPTHAVDRAFLDLERRRPEVRWDAGGVAYLSGPPPSLADLRAYVAFRLGELPLLTSRVTGGRRPGWQPSEDFPVDRHVYEVVADGPADWDTALHSALNAPFAPGAYWGVWLIHGHEPDAYALCYRFLHACQDGSAAAMTFRAMLGDGEPSARPLPGGSGVFGVPRRFGAAVALATRFLARTFTVRRHRPDPAFAPAGERRLWRGRVPVDTLRLIGAGRGGSAHDAHLAALAGALSVWAARSGVPLPRVTAVLPVDARRADEEQTWGNRCFALPVDLPVGPAPGRPDGSPDEEAPLRRLDQIMAVTRKLRGDTWRQAVQDLVRYMPDRPTAWYLRRMLSPRVTNVMATSMPLAEKGSLGETRVTGTALLPLLVPGHLCGVGLSFFGDWAEVSFVADRALPLGELLPELWEQAVRELAESVQRGLEHHHHHH”, the “soluble on expression in E. coli” value was “not soluble”. For “MSASVSLTTPVSVSCLINDVNPSVKAKKEDATAVTTTQAPKIAEAIHRSTPTLADNVLYDSTSYTHGVTTGSTNVPISSGQRPQQADYSLALLAKDVYAPTSGNLNGFVRLSDERLLAAGIDPTALSDSASGFLAGIYSDNQQYVLSFAGTNDRHDWLSNIRQAVGYEDVQYNEAVALGKTAKMAFGDALVITGHSLGGGLAATAALATGTFAVTFNAAGVAKNTLKRLGMDSAKARRSAENGGIRSYSEKYDLLTGIQELTSLIPNAVGHKIVLANSDKLTGVDDWLPHKHLERRISAHSIEKVLSSMSEQQPWERRYV”, the “soluble on expression in E. coli” value was “not soluble”. With “MSATASVATRHDWSLAEVRALFEQPFNDLLFQAQTVHRAHFDPNRVQVSTLLSIKTGACPEDCKYCPQSGHYNTGLDKEKLMEVQKVLEAAAEAKAIGSTRFCMGAAWKHPSAKDMPYVLEMVKGVKKLGLETCMTLGRLTQEQTQALADAGLDYYNHNLDTSPEFYGNIITTRTYSERLQTLAYVREAGMKICSGGILGMGESVDDRAGLLIQLANLPEHPESVPINMLVKVKGTPLAEEKDVDPFDFIRTLAVARIMMPKSHVRLSAGREQMNEQMQALAFMAGANSIFYGEKLLTTKNPQAEKDMQLFARLGIKPEEREEHADEVHQAAIEQALVEQRESKLFYNAASA” the “soluble on expression in E. coli” value was “not soluble”. In the case of “MSATSVDTQRTKGQDNKVQNGSLHQKDTVHDNDFEPYLTGQSNQSNSYPSMSDPYLSSYYPPSIGFPYSLNEAPWSTAGDPPIPYLTTYGQLSNGDHHFMHDAVFGQPGGLGNNIYQHRFNFFPENPAFSAWGTSGSQGQQTQSSAYGSSYTYPPSSLGGTVVDGQPGFHSDTLSKAPGMNSLEQGMVGLKIGDVSSSAVKTVGSVVSSVALTGVLSGNGGTNVNMPVSKPTSWAAIASKPAKPQPKMKTKSGPVMGGGLPPPPIKHNMDIGTWDNKGPVPKAPVPQQAPSPQAAPQPQQVAQPLPAQPPALAQPQYQSPQQPPQTRWVAPRNRNAAFGQSGGAGSDSNSPGNVQPNSAPSVESHPVLEKLKAAHSYNPKEFEWNLKSGRVFIIKSYSEDDIHRSIKYSIWCSTEHGNKRLDSAFRCMSSKGPVYLLFSVNGSGHFCGVAEMKSPVDYGTSAGVWSQDKWKGKFDVQWIFVKDVPNNQLRHIRLENNDNKPVTNSRDTQEVPLEKAKQVLKIISSYKHTTSIFDDFAHYEKRQEEEEVVRKERQSRNKQ”, the “soluble on expression in E. coli” value is reported as “soluble”. For “MSAYLDWLADMGIDGAHPGGFELTKQILRKLKIDRSTSVLDVGCGTGQTAAYIAEQYGANVTAIDIHPTMIAKAKQRFAAKAVSVRLHRASVEALPFPAGTFDLALSESVLAFVSLPNALAEIRRVLKNDGLFVGIEACHERLTAAEQKQIAAFYGFRQLMTSAEWKEVLEQSGFGCRQFSYAAAAEAPSLGAPIVIALPPTPEMASMWQMHQQLTAQFGDRLGYCVFCCEP”, the “soluble on expression in E. coli” value was “not soluble”. For “MSCINLPTVLPGSPSKTRGQIQVILGPMFSGKSTELMRRVRRFQIAQYKCLVIKYAKDTRYSSSFCTHDRNTMEALPACLLRDVAQEALGVAVIGIDEGQFFPDIMEFCEAMANAGKTVIVAALDGTFQRKPFGAILNLVPLAESVVKLTAVCMECFREAAYTKRLGTEKEVEVIGGADKYHSVCRLCYFKKASGQPAGPDNKENCPVPGKPGEAVAARKLFAPQQILQCSPAN”, the “soluble on expression in E. coli” value was “soluble”. In the case of “MSDALDDENVLCFRYKSYYIKDDGSRIDTLNEERIKHIVDFTLDKYLDATQNTPKFDNFENPVKEGFNSIFACESKEAAIEYYKEFKKQIEQKKLPIKIASIIAQTKVVMNKKLV”, the “soluble on expression in E. coli” value is reported as “soluble”. In the case of “MSDATLHATDQNPDDFAVQIADQIESFLVAVTEVAKGDEPDSAVPFLLLEVSQLMLAGGRLGAHEDIVPDERYEPDPGPELDVDEIRENLARILDPVDVYSEVFDPYEPRKAPVPARISDDLTDVITDLRHGMVHYKAGRTTEALWWWQFSYFSNWGSTASATLRALQSVVAHVRLNQPLEELDGLDTDQELGEETLESEAGRVMVREIAAPLGLRPVKLEHHHHHH”, the “soluble on expression in E. coli” value is reported as “soluble”. In the case of “MSDESEALLRVDHVKYRKAGDGKSPIGRLALFTDFIEWRDNASPEVFTCKFIRINGQRVSPPHKSKVQLQLILKNEDQATFVFLNPSASKEDLVKERDAVKEALQSALVKHRHRVNELAKSVESQSKQVELQAKQKILQEDRNLEKLYQNLVATKLITPDDFWSDYYQKEGVSEDKIGINGAFLANIVQQEGTNGVRLNLNPEIIQAIYSTYPAGQYWQNRENKKKCKEILKFTIQCEYLTRKISRSENYIQKKNLELVPHEMSEENFWKKFFQSHYFHREREVLPNPKDPFAECVRDDEEEMTKMTAEKIQRKRFDLEHIDDNGLRDFIHKSESQQKSAKTTLIKRCNYLSEKILATSWRSGEAAPTTSAAANQKKGFGVLDRLVAETETRLESEDLATKEAEDEVQIVRISSSAKASQAKYSKPDMTRYKALVTDYFQNSSVEDILHRNEMLLDQQEMETWEMEEAMETDNNEVPPPENWCQSAGDLAKVRDVHSAVREICRQFWKSFPPIDKASEEKLNRMAGTLSKYRDDIRNSDISKENLTHCIQMIDLAVDKFEAYEMKKMK”, the “soluble on expression in E. coli” value is reported as “not soluble”. In the case of “MSDESPAFALHSGSSRQRKSLEFRFQQSPRWAPYSSASDGNEQKTSLVNNSLTRPNSSNPQCLNEENGFDRDSTAISTSFRSLLSLSESSVPWETPTNNQSSSLTHCSYPRVFCNPVSVCENPEPDHTQEDSSTNPGSSIMMSTRNHQGSPVEEEVSPNSSSNDMLLDVERSNDTEVANPRSEQGSMTHQRCGICKKLLSQKSPWSSYKILRSRDMPATGVFPCHHVYHVECLDKATPTAQTRDPSCPVCSNTIGVMEQPLIAPETLQMALRSLRRSRTALELETVRVPSNDNQRRHNTRRSHKWDKLSCCLNISFSSSS”, the “soluble on expression in E. coli” value is reported as “soluble”. With “MSDFEETIRRLQSEKGVVGIIVVDSAGRVIHSTIDSDATQSHTAFLQQLCEKTKTSIRELDSSNDLTFLRLRTKKNEIMIAPDKDHVIMVIKDLS” the “soluble on expression in E. coli” value was “not soluble”. In the case of “MSDGERVLKIPVEYFEDGWKKGEAVITKDAISFAGKTIRFKEIQDLERLKHEGRDAIRIKKDADYFIDFGSRQAQIFRYLAFNLKSDRFAVYFLSPATRGGVVVSDSKWEKGYLSITDEALWFLSSSKQIRISIQNLGSVEKDIRTVGKKQRVVLVVTHVENGEVITSFVLCPETTMDMLQEYIQNFIEKSKPKEKLSEVEEQILTMVYTGVDSVSVESILGVTTEELNKMYDRLVNLGLARVVKIRKEIELTPRGVALVSEIMKKAAR”, the “soluble on expression in E. coli” value is reported as “not soluble”. For “MSDGQLVQRRRKAEEPVTEKVDEASGDSAQSSDQEDNDKGTRLTLMEQILLLGLKDREGYTSFWNDCISSGLRGCVLIELVLRGRIQLEGGGMRRKNLLNRKVTVKSSEPTGDVILDEALRHMKETNPPETVTSWIEYLSGETWNPLKLRYQLRNVRERLAKNLVEKGVLTTDKQNFLLFEITTHPLSDGNQKTKLIKEVQEAVLGKWTNDVHRMDKKMLSLIVLAHASDVLENAFAPLSDQDYEVKQMLEILFFSGKLAHFEPKNVAMKRVRSLLDLDYDQQAEKKGNDVMWAVFEAFSK”, the “soluble on expression in E. coli” value was “soluble”. With “MSDIFNSPQNKASILTALMKSTTGDVEDVLIPKRFRPAKDPLDSPQAAAQFLKDNKYRILRPRAIPTMVELETDAALPRLRQMVEDGKLKDTVSVPEGTTAFYPKYYPFHKPDHDEVGTFGAPDITLLKQLTFFLLENDFPTGPETLRQVREAIATLQYGSGSYSGQLNRLLAMKGVATGRNPNKTPKTVGYTNEQLAKLLEQTLPINTPKHEDPDLRWAPSWLINYTGDLSTDKSYLPHVTIKSSAGLPYIGKTKGDTTAEALVLADSFIRDLGRAATSADPEAGVKKTITDFWYLSCGLLFPKGERYTQVDWDKKTRNIWSAPYPTHLLLSMVSTPVMNESKLNITNTQTPSLYGFSPFHGGMDRIMTIIRDSLDNDEDLVMIYADNIYILQDNTWYSIDLEKGEANCTPQHMQAMMYYLLTRGWTNEDGSPRYNPTWATFAMNVAPSMVVDSSCLLMNLQLKTYGQGSGNAFTFLNNHLMSTIVVAEWVKAGKPNPMTKEFMDLEEKTGINFKIERELKNLRETIVEAVETAPQDGYLADGSDLPPIRPGKAVELDLLGWSAIYSRQMEMFVPVLENERLIASAAYPKGLENKALARKPGAEIAYQIVRYEAIRLVGGWNNPLLETAAKHMSLDKRKRLEVKGIDVTGFLDDWNNMSEFGGDLEGITLSEPLTNQTLVDINTPLDSFDPKARPQTPRSPKKTLDEVTTAITSGTYKDPKSAVWRLLDQRTKLRVSTLRDQALALKPASSSVDNWAEATEELAQQQQLLMKANNLLKSSLTETREALETIQSDKIIAGKSNPEKNPGTAANPVVGYGEFSEKIPLTPTQKKNAKRREKQRRNQ” the “soluble on expression in E. coli” value was “not soluble”. With “MSDITLDIADFHWVTQILDTMDSGLIVLDPEYNVCVWNSFMQSYSGVLSQDILGQCLFDHFDELPRTWLETKLKASADLETRSFSSWENRPYLFKFNNFSPVSNSCDFMFQDIVITPLRSLSGEVSHIAIQVNDVSETARNRIHLRETNQHLSEISRKDGL” the “soluble on expression in E. coli” value was “not soluble”. In the case of “MSDKFNQFINRVLSHEGGYANHPKDPGGETNWGITKRTAQANGYNGSMRAMTREQAISIYRKAFWERYRADQMPEAVAFQFFDACVNHGYGNAARMLQRAAGVPDDGVIGAVSLKAINSLPENDLLLRFNAERLVFYTKLGTFTSFGKGWVRRVAQNLIHASADNTD”, the “soluble on expression in E. coli” value is reported as “soluble”. With “MSDNAQLTGLCDRFRGFYPVVIDVETAGFNAKTDALLEIAAITLKMDEQGWLMPDTTLHFHVEPFVGANLQPEALAFNGIDPNDPDRGAVSEYEALHEIFKVVRKGIKASGCNRAIMVAHNANFDHSFMMAAAERASLKRNPFHPFATFDTAALAGLALGQTVLSKACQTAGMDFDSTQAHSALYDTERTAVLFCEIVNRWKRLGGWPLPAAEEV” the “soluble on expression in E. coli” value was “not soluble”. For “MSDNLSARWHRILDMTNRETSDDVVIARSSFDDFSQSTPWRKFEISCGNRSFFVNPGWLAELSPYFADELYVRKPNVQRYVIDQATPDEVLEFLRCITFCPMRKPLTVKNVSLVLTFANRFEMRPVQARCENFIAQNATSLSRDKTKLFQVTCAMSQCDPNSSTMSVLVDKLAGIKDDELSRLHFAEMPGDVVAEVYAQKIQRTKDKKAQRQAGASDETAAGCCFMQWASSLFNRRRQRNQADQSILPPSGDQQHHRSELHA”, the “soluble on expression in E. coli” value was “not soluble”.
